# Test results published in ChEMBL document CHEMBL1143972, “Electronic effects of para-substitution on acetophenones in the reaction of rat liver 3alpha-hydroxysteroid dehydrogenase” (Bioorg Med Chem, 2008).
# B1: 3-alpha-hydroxysteroid dehydrogenase (Rattus norvegicus), P23457 (protein)
# chain: MDSISLRVALNDGNFIPVLGFGTTVPEKVAKDEVIKATKIAIDNGFRHFDSAYLYEVEEEVGQAIRSKIEDGTVKREDIFYTSKLWSTFHRPELVRTCLEKTLKSTQLDYVDLYIIHFPMALQPGDIFFPRDEHGKLLFETVDICDTWEAMEKCKDAGLAKSIGVSNFNCRQLERILNKPGLKYKPVCNQVECHLYLNQSKMLDYCKSKDIILVSYCTLGSSRDKTWVDQKSPVLLDDPVLCAIAKKYKQTPALVALRYQLQRGVVPLIRSFNAKRIKELTQVFEFQLASEDMKALDGLNRNFRYNNAKYFDDHPNHPFTDE
# Legend:
# [1] = molecular target: T1, 3-alpha-hydroxysteroid dehydrogenase (Rattus norvegicus) (UniProt P23457); assay: Ratio of Vmax to Km for rat liver 3-alpha-HSD for formation of corresponding (S)-alcohol products
# T1 sequence (whole entry): B1 chain
# [2] = molecular target: T1, 3-alpha-hydroxysteroid dehydrogenase (Rattus norvegicus); assay: Ratio of Vmax to Km for rat liver 3-alpha-HSD for formation of corresponding (R)-alcohol products
# [3] = substrate: CC(=O)c1ccc(N(C)C)cc1; assay: (§1) Activity of rat liver 3-alpha-HSD assessed as formation of corresponding (R)-alcohol products
# [4] = substrate: CC(=O)c1ccc(C)cc1; assay: as §1
# [5] = substrate: CC(=O)c1ccc(C#N)cc1; assay: (§2) Activity of rat liver 3-alpha-HSD assessed as formation of corresponding (S)-alcohol products per mg of protein
# [6] = substrate: CC(=O)c1ccc(N(C)C)cc1; assay: as §2
# [7] = substrate: CC(=O)c1ccc([N+](=O)[O-])cc1; assay: as §2
# [8] = substrate: CC(=O)c1ccc(C)cc1; assay: as §2
# [9] = substrate: CC(=O)c1ccccc1; assay: as §2
# [10] = substrate: COc1ccc(C(C)=O)cc1; assay: as §2
# [11] = substrate: CC(=O)c1ccc(Br)cc1; assay: as §2
# [12] = substrate: CC(=O)c1ccc(N(C)C)cc1; assay: (§3) Activity of rat liver 3-alpha-HSD assessed as formation of corresponding (R)-alcohol products per mg of protein
# [13] = substrate: CC(=O)c1ccc(C)cc1; assay: as §3
# [14] = substrate: CC(=O)c1ccc(C#N)cc1; assay: (§4) Activity of rat liver 3-alpha-HSD assessed as formation of corresponding (S)-alcohol products
# [15] = substrate: CC(=O)c1ccc(N(C)C)cc1; assay: as §4
# [16] = substrate: CC(=O)c1ccc([N+](=O)[O-])cc1; assay: as §4
# [17] = substrate: CC(=O)c1ccc(C)cc1; assay: as §4
# [18] = substrate: CC(=O)c1ccccc1; assay: as §4
# [19] = substrate: COc1ccc(C(C)=O)cc1; assay: as §4
# [20] = substrate: CC(=O)c1ccc(Br)cc1; assay: as §4
molecule,measurement,setting,value
CC(=O)c1ccc(C#N)cc1,Ratio,[1],9440 µL/min
CC(=O)c1ccc(Br)cc1,Ratio,[1],30.6 µL/min
COc1ccc(C(C)=O)cc1,Ratio,[1],0.97 µL/min
CC(=O)c1ccc(N(C)C)cc1,Ratio,[1],0.41 µL/min
same,Ratio,[2],0.09 µL/min
CC(=O)c1ccc(C)cc1,Ratio,[1],7.21 µL/min
same,Ratio,[2],1.01 µL/min
CC(=O)c1ccccc1,Ratio,[1],49 µL/min
CC(=O)c1ccc([N+](=O)[O-])cc1,Ratio,[1],61700 µL/min
B1,Km,[3],19.2 mM
same,Km,[4],13.2 mM
same,Vmax,[5],1.08 µmol/min
same,Vmax,[6],0.009 µmol/min
same,Vmax,[7],1.13 µmol/min
same,Vmax,[8],0.2 µmol/min
same,Vmax,[9],0.51 µmol/min
same,Vmax,[10],0.005 µmol/min
same,Vmax,[11],0.315 µmol/min
same,Vmax,[12],0.002 µmol/min
same,Vmax,[13],0.013 µmol/min
same,Km,[14],0.11 mM
same,Km,[15],21.9 mM
same,Km,[16],0.02 mM
same,Km,[17],27.7 mM
same,Km,[18],10.4 mM
same,Km,[19],5.59 mM
same,Km,[20],10.3 mM
